According to patent publication US20060150259A1, “Model of bone disease amenable to high-throughput screening” (priority 2003, published 2006):
Entries after “also recorded” stand apart in the source; their conditions may differ.

Experiments:
[1] = tested on: zebrafish larvae (bone formation); assay: Anabolic bone screen in zebrafish larvae; format: in vivo; settings: for anabolic effects (promoting bone), dose/response: 3 d.p.f. to 8 d.p.f., range of concentrations
Description: A 1 mg/ml stock of parathyroid hormone (PTH) (Sigma) was made in 20 mM NaH2PO4 and 2.13g/L mannitol. A […] stock of cholecalciferol (Vitamin D)(Sigma) was made in dH2O. […]
(§1) Embryos and larvae were fixed in 4% paraformaldehyde (PFA), then labelled with alizarin red as described herein. In vivo labelling was achieved by rearing fish in 0.05% alizarin red in embryo medium.
(§2) Stained larvae were mounted on depression slides and visualised by fluorescence microscopy on a BX51 microscope (Olympus) and images were captured using a ColorView camera and AnalySis software (Olympus). The intensity of and area of alizarin red fluorescence was quantified for each treatment group, with a minimum of 5 samples per group, using colour threshold and area measurements in AnalySis (Olympus). Mean values and standard deviations were calculated using Excel software (Microsoft Office).
In addition to screening for the rescue of osteoporosis, we observed that anabolic bone effects could also be detected.

zebrafish = assay: DMSO tolerance of zebrafish; format: in vivo; settings: added to the fish water
From the text: Moreover, the inventors have discovered that zebrafish are also DMSO (dimethyl sulphoxide) tolerant. This is important as DMSO is used as a solvent to dissolve many drugs. The inventors have established that zebrafish can tolerate 1% DMSO. Thus, a candidate drug or other test substance may be dissolved in DMSO and administered to zebrafish by adding to the fish water to give a final concentration of DMSO of at least up to 1%. This is employed in various preferred aspects and embodiments of the present invention.

zebrafish larvae = assay: Toxicity / viability of zebrafish larvae in embryo medium containing compound
Description: For compound screening, a dose of 10 ug/ml prednisolone may be used, although other doses and durations of exposure may also be used.

[2] = tested on: zebrafish larvae with prednisolone-induced osteoporosis; assay: Rescue of prednisolone-induced osteoporosis with etidronate in zebrafish larvae; format: in vivo
Description: 1) Osteoporosis was induced with prednisolone as described above.
2) Etidronic acid (Sigma H6773) was made up as […] stock in embryo medium.
3) Osteoporosis was rescued by co-administration of etidronic acid and prednisolone from 3 d.p.f. to 10 d.p.f.
A 10 mg/ml stock solution of etidronate (Sigma) in embryo medium was used in all prednisolone rescue experiments. The pH of the solution was adjusted to pH 7.5 using NaOH. The stock was stored at 4° C. for a maximum of 2 months. […]. OP was induced by exposure of larvae to 10 ug/ml prednisolone from 3 d.p.f. to 6 d.p.f. At 6 d.p.f., medium containing 10 ug/ml prednisolone was removed and replaced with 10 ug/ml prednisolone in combination with etidronate.
as §1, §2
A dose/response study was performed using larvae exposed to varying doses of etidronate in the presence of prednisolone (at 10 ug/ml) from 3 d.p.f. to 9 d.p.f. Samples were stained with alizarin red and the area of stained tissue was quantified using AnalySis software. The average stained area was calculated from five samples at each concentration and plotted as a mineralization index.

## C=C1CC[C@H](O)C/C1=C/C=C1\CCC[C@]2(C)[C@@H]([C@H](C)CCCC(C)C)CC[C@@H]12 [Cholecalciferol, cholecalciferol, reference compound]
[1]
  anabolic effects (promoting bone), dose/response: clear dose/response in relation to promoting bone

## C[S+](C)[O-] [DMSO, dimethyl sulphoxide]
zebrafish
  DMSO concentration tolerated by zebrafish: 1%

## CC(O)(P(=O)(O)O)P(=O)(O)O [etidronate, Etidronic acid]
Zebrafish larvae; 5 ug/mi etidronic acid co-administered with 10 ug/ml prednisolone
  viability of larvae: viable beyond 10 d.p.f.
Zebrafish larvae; 10 ug/ml etidronate co-administered with 10 ug/ml prednisolone
  viability of larvae: viable beyond 10 d.p.f.
[2]; etidronate 10 ug/ml with prednisolone 10 ug/ml
  rescue of OP phenotype in wholemount skeletal preparations (amount of staining): rescue is readily observed; also recorded: clear increase in the amount of staining
[2]; increasing doses of etidronate in the presence of prednisolone
  dose/response, fluorescence intensity in stained bones in vivo: correlated with recovery from OP
[2]; varying doses of etidronate with prednisolone 10 ug/ml, 3 d.p.f. to 9 d.p.f.
  dose/response, area of stained tissue (mineralization index): clear correlation between increasing doses of etidronate and rescue of the OP phenotype

B1: parathyroid hormone (peptide, UniProt P01270 32-115, looked up)
Parathyroid hormone: SVSEIQLMHNLGKHLNSMERVEWLRKKLQDVHNFVALGAPLAPRDAGSQRPRKKEDNVLVESHEKSLGEADKADVNVLTKAKSQ
modifications: Parathyroid hormone
notes: parathyroid hormone (PTH) (Sigma)
[1]; 40 ng/ml, Continuous, 3 d.p.f. to 8 d.p.f
  Summary of effects: Anabolic effect
[1]; 100 ng/ml, Continuous, 3 d.p.f. to 8 d.p.f
  Summary of effects: Mild catabolic
[1]; 200 ng/ml, Brief, 6 hours on 5 d.p.f, effects noted on 8 d.p.f.
  Summary of effects: Strong anabolic
[1]; 200 ng/ml, Continuous, 3 d.p.f. to 8 d.p.f
  Summary of effects: Strong catabolic
[1]; 200 ng/ml, administered for 6-8 hours and then removed from the medium
  effect on bone: anabolic effect
[1]; 206 ng/ml, administered continuously from 3 d.p.f to 9 d.p.f.
  effect on bone: catabolic effect
[1]
  anabolic effects (promoting bone), dose/response: clear dose/response in relation to promoting bone
[1]; doses up to 100 ng/ml, administered continuously from 3 d.p.f to 9 d.p.f.
  effect on bone: anabolic effect
